The subject of one assay is hIFNg promoter. Briefly: NHR-promoter luciferase screen, hIFNg promoter. It counts as cell-based, human. The conditions noted are these: for Luc. act., normalized to lacZ / Normalized Luc. act., normalized to control: IFNg promoter, HR component without or with ligand; for hIFNg promoter reporter activity: transcription factor +/- ligand, control = 1.00. In a few lines: (§1)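 CV-1 cells were co-transfected with 50 ng NHR (homodimer or NHR/RXR heterodimer), 100 ng promoter-luciferase construct and 50 ng LacZ. Luciferase was normalized to LacZ and to a no-NHR/no-ligand control.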

The test system of a further assay is MCP-1 promoter. Put plainly: NHR-promoter luciferase screen, MCP-1 promoter. It counts as cell-based. The following applies: for Normalized Luc. act., normalized to control / Luc. act., normalized to lacZ: MCP-1 promoter reporter; for Normalized Luc. act., normalized to control: HR without or with its ligand, relative to control; for Luc. act., normalized to lacZ: hormone receptor (HR) without or with its ligand; for mMCP-1 promoter reporter activity: transcription factor +/- ligand, control = 1.00. The method, boiled down:
as §1

The subject of a further assay is mUCP1 promoter. Put plainly: NHR-promoter luciferase screen, mUCP1 promoter. It counts as cell-based, mouse. The conditions noted are these: for Luc. act., normalized to lacZ / Normalized Luc. act., normalized to control: mUCP1 promoter reporter, co-transfected HR, with or without its ligand; for Normalized Luc. act., normalized to control: relative to control; for luciferase activity normalized to lacZ activity and to a control, mUCP!: mUCP! promoter-luciferase, CV-1 cells, NHR +/- ligand, control = 1.00. In a few lines:
as §1

For a further assay, the system named is hG6PD promoter. Put plainly: NHR-promoter luciferase screen, hG6PD promoter. The following applies: for Luc. act., normalized to lacZ / Normalized Luc. act., normalized to control: G6PD promoter reporter, co-transfected HR, without or with its ligand; for Normalized Luc. act., normalized to control: relative to control; for luciferase activity normalized to lacZ activity and to a control, hG6PD: hG6PD promoter-luciferase, CV-1 cells, NHR +/- ligand, control = 1.00. It is filed as cell-based, human. In a few lines: as §1

A further assay has as its system hPPARg2 promoter. Put plainly: NHR-promoter luciferase screen, hPPARg2 promoter. It is filed as cell-based, human. The conditions noted are these: for Luc. act., normalized to lacZ / Normalized Luc. act., normalized to control: PPARG2 promoter, hormone receptor with or without its ligand; for Normalized Luc. act., normalized to control: relative to control; for Results of assays of transcription factor (+/- ligand) with hPPARg2: Table 6d, luciferase activity relative to control (control = 1.00). In a few lines:
as §1

The test system of a further assay is mGhrelin promoter. Put plainly: NHR-promoter luciferase screen, mGhrelin promoter. It is filed as cell-based, mouse. The following applies: for Luc. act., normalized to lacZ / Normalized Luc. act., normalized to control: Table 8, mGhrelin; for Results of assays of transcription factor (+/- ligand) with mGhrelin: Table 6d, luciferase activity relative to control (control = 1.00). The method, boiled down:
as §1

B1: RORb: RAR-related Orphan Receptor β (NR1F2), cDNA driver (protein, UniProt Q92753 1-470, looked up)
Nuclear receptor ROR-beta: MCENQLKTKADATAQIEVIPCKICGDKSSGIHYGVITCEGCKGFFRRSQQNNASYSCPRQRNCLIDRTNRNRCQHCRLQKCLALGMSRDAVKFGRMSKKQRDSLYAEVQKHQQRLQEQRQQQSGEAEALARVYSSSISNGLSNLNNETSGTYANGHVIDLPKSEGYYNVDSGQPSPDQSGLDMTGIKQIKQEPIYDLTSVPNLFTYSSFNNGQLAPGITMTEIDRIAQNIIKSHLETCQYTMEELHQLAWQTHTYEEIKAYQSKSREALWQQCAIQITHAIQYVVEFAKRITGFMELCQNDQILLLKSGCLEVVLVRMCRAFNPLNNTVLFEGKYGGMQMFKALGSDDLVNEAFDFAKNLCSLQLTEEEIALFSSAVLISPDRAWLIEPRKVQKLQEKIYFALQHVIQKNHLDDETLAKLIAKIPTITAVCNLHGEKLQVFKQSHPEIVNTLFPPLYKELFNPDCATGCK
B1: in the assay on hIFNg promoter, the “Luc. act., normalized to lacZ” value worked out at 22.2; the “Normalized Luc. act., normalized to control” value is recorded as 1.4; the “hIFNg promoter reporter activity” value came out at 1.40. Moreover, in the assay with MCP-1 promoter, the “Normalized Luc. act., normalized to control” value is recorded as 1.6; the “Luc. act., normalized to lacZ” value is on record as 176.3; the “mMCP-1 promoter reporter activity” value was determined as 1.65. In the assay with mUCP1 promoter, the “Luc. act., normalized to lacZ” value is 3.8; the “Normalized Luc. act., normalized to control” value is recorded as 0.9; the “luciferase activity normalized to lacZ activity and to a control, mUCP!” value was determined as 0.86. Also, in the assay with hG6PD promoter, the “Luc. act., normalized to lacZ” value came out at 51.1; the “Normalized Luc. act., normalized to control” value amounted to 1.4; the “luciferase activity normalized to lacZ activity and to a control, hG6PD” value came to 1.37. Further, in the assay on hPPARg2 promoter, the “Luc. act., normalized to lacZ” value turned out to be 1.8; the “Normalized Luc. act., normalized to control” value is reported as 0.9; the “Results of assays of transcription factor (+/- ligand) with hPPARg2” value is reported as 0.89. In addition, in the assay on mGhrelin promoter, the “Luc. act., normalized to lacZ” value was found to be 89.1; the “Normalized Luc. act., normalized to control” value was 1.7; the “Results of assays of transcription factor (+/- ligand) with mGhrelin” value is 1.70.

B2: CAR: Constitutive Androstane Receptor (NR1I3), cDNA driver (protein, UniProt Q14994 1-352, looked up)
Nuclear receptor subfamily 1 …: MASREDELRNCVVCGDQATGYHFNALTCEGCKGFFRRTVSKSIGPTCPFAGSCEVSKTQRRHCPACRLQKCLDAGMRKDMILSAEALALRRAKQAQRRAQQTPVQLSKEQEELIRTLLGAHTRHMGTMFEQFVQFRPPAHLFIHHQPLPTLAPVLPLVTHFADINTFMVLQVIKFTKDLPVFRSLPIEDQISLLKGAAVEICHIVLNTTFCLQTQNFLCGPLRYTIEDGARVSPTVGFQVEFLELLFHFHGTLRKLQLQEPEYVLLAAMALFSPDRPGVTQRDEIDQLQEEMALTLQSYIKGQQRRPRDRFLYAKLLGLLAELRSINEAYGYQIQHIQGLSAMMPLLQEICS
Regarding B2, in the assay with hIFNg promoter, the “Luc. act., normalized to lacZ” value came to 19.0; the “Normalized Luc. act., normalized to control” value came to 1.2; the “hIFNg promoter reporter activity” value was found to be 1.19. Besides, in the assay on MCP-1 promoter, the “Normalized Luc. act., normalized to control” value worked out at 1.1; the “Luc. act., normalized to lacZ” value was determined as 115.7; the “mMCP-1 promoter reporter activity” value is listed as 1.08. For the same molecule, in the assay on mUCP1 promoter, the “Luc. act., normalized to lacZ” value is reported as 3.3; the “Normalized Luc. act., normalized to control” value is 0.7; the “luciferase activity normalized to lacZ activity and to a control, mUCP!” value was 0.74. Moreover, in the assay on hG6PD promoter, the “Luc. act., normalized to lacZ” value is 46.4; the “Normalized Luc. act., normalized to control” value worked out at 1.2; the “luciferase activity normalized to lacZ activity and to a control, hG6PD” value turned out to be 1.24. Moreover, in the assay with hPPARg2 promoter, the “Luc. act., normalized to lacZ” value is 1.3; the “Normalized Luc. act., normalized to control” value is 0.6; the “Results of assays of transcription factor (+/- ligand) with hPPARg2” value turned out to be 0.63. For the same molecule, in the assay on mGhrelin promoter, the “Luc. act., normalized to lacZ” value came to 52.2; the “Normalized Luc. act., normalized to control” value was 1.0; the “Results of assays of transcription factor (+/- ligand) with mGhrelin” value came out at 1.00.

(Values after patent US20110263454A1, “Methods of Identifying Functional Characteristics of Promoters, Transcription Modifying Proteins and Transcription Modulating Agents” (Salk Institute for Biological Studies, priority 2008, published 2011).)
